# Patent US20220306695A1, “COMPSTATIN ANALOGUES AND THEIR MEDICAL USES” (priority 2019, published 2022)
# Positions of bridges follow the written chain, without caps; N, C: chain ends. Non-standard residues stand in square brackets, D forms with d. Trp(1-Me) = Cn1cc(C[C@H](N)C(=O)O)c2ccccc21; 1Nal = N[C@@H](Cc1cccc2ccccc12)C(=O)O; 2Nal = N[C@@H](Cc1ccc2ccccc2c1)C(=O)O; Sar = CNCC(=O)O
# B1: Compound 50 (peptide)
# peptide: Ac-EGSAICI[2Nal]QDWGEHRC[Sar]E-NH2
# modifications: disulfide 6-16
# SMILES: CC[C@H](C)[C@H](NC(=O)[C@H](C)NC(=O)[C@H](CO)NC(=O)CNC(=O)[C@H](CCC(=O)O)NC(C)=O)C(=O)N[C@H]1CSSC[C@@H](C(=O)N(C)CC(=O)N[C@@H](CCC(=O)O)C(N)=O)NC(=O)[C@H](CCCNC(=N)N)NC(=O)[C@H](Cc2c[nH]cn2)NC(=O)[C@H](CCC(=O)O)NC(=O)CNC(=O)[C@H](Cc2c[nH]c3ccccc23)NC(=O)[C@H](CC(=O)O)NC(=O)[C@H](CCC(N)=O)NC(=O)[C@H](Cc2ccc3ccccc3c2)NC(=O)[C@H]([C@@H](C)CC)NC1=O
# B2: Compound 81 (peptide)
# peptide: Ac-SE[Sar]CI[Trp(1-Me)]QDWGEHRC[Sar]EA-NH2
# modifications: disulfide 4-14
# SMILES: CC[C@H](C)[C@@H]1NC(=O)[C@@H](NC(=O)CN(C)C(=O)[C@H](CCC(=O)O)NC(=O)[C@H](CO)NC(C)=O)CSSC[C@@H](C(=O)N(C)CC(=O)N[C@@H](CCC(=O)O)C(=O)N[C@@H](C)C(N)=O)NC(=O)[C@H](CCCNC(=N)N)NC(=O)[C@H](Cc2c[nH]cn2)NC(=O)[C@H](CCC(=O)O)NC(=O)CNC(=O)[C@H](Cc2c[nH]c3ccccc23)NC(=O)[C@H](CC(=O)O)NC(=O)[C@H](CCC(N)=O)NC(=O)[C@H](Cc2cn(C)c3ccccc23)NC1=O
# B3: Compound 86 (peptide)
# peptide: Ac-SEFCI[Trp(1-Me)]QDWGEHKC[Sar]EA-NH2
# modifications: disulfide 4-14
# SMILES: CC[C@H](C)[C@@H]1NC(=O)[C@@H](NC(=O)[C@H](Cc2ccccc2)NC(=O)[C@H](CCC(=O)O)NC(=O)[C@H](CO)NC(C)=O)CSSC[C@@H](C(=O)N(C)CC(=O)N[C@@H](CCC(=O)O)C(=O)N[C@@H](C)C(N)=O)NC(=O)[C@H](CCCCN)NC(=O)[C@H](Cc2c[nH]cn2)NC(=O)[C@H](CCC(=O)O)NC(=O)CNC(=O)[C@H](Cc2c[nH]c3ccccc23)NC(=O)[C@H](CC(=O)O)NC(=O)[C@H](CCC(N)=O)NC(=O)[C@H](Cc2cn(C)c3ccccc23)NC1=O
# B4: Compound 49 (peptide)
# peptide: Ac-EGSAICI[Trp(1-Me)]QDWGEHRC[Sar]E-NH2
# modifications: disulfide 6-16
# SMILES: CC[C@H](C)[C@H](NC(=O)[C@H](C)NC(=O)[C@H](CO)NC(=O)CNC(=O)[C@H](CCC(=O)O)NC(C)=O)C(=O)N[C@H]1CSSC[C@@H](C(=O)N(C)CC(=O)N[C@@H](CCC(=O)O)C(N)=O)NC(=O)[C@H](CCCNC(=N)N)NC(=O)[C@H](Cc2c[nH]cn2)NC(=O)[C@H](CCC(=O)O)NC(=O)CNC(=O)[C@H](Cc2c[nH]c3ccccc23)NC(=O)[C@H](CC(=O)O)NC(=O)[C@H](CCC(N)=O)NC(=O)[C@H](Cc2cn(C)c3ccccc23)NC(=O)[C@H]([C@@H](C)CC)NC1=O
# B5: Compound 61 (peptide)
# peptide: Ac-FCI[Trp(1-Me)]QDWGEHRCTGAES-NH2
# modifications: disulfide 2-12
# SMILES: CC[C@H](C)[C@@H]1NC(=O)[C@@H](NC(=O)[C@H](Cc2ccccc2)NC(C)=O)CSSC[C@@H](C(=O)N[C@H](C(=O)NCC(=O)N[C@@H](C)C(=O)N[C@@H](CCC(=O)O)C(=O)N[C@@H](CO)C(N)=O)[C@@H](C)O)NC(=O)[C@H](CCCNC(=N)N)NC(=O)[C@H](Cc2c[nH]cn2)NC(=O)[C@H](CCC(=O)O)NC(=O)CNC(=O)[C@H](Cc2c[nH]c3ccccc23)NC(=O)[C@H](CC(=O)O)NC(=O)[C@H](CCC(N)=O)NC(=O)[C@H](Cc2cn(C)c3ccccc23)NC1=O
# B6: Compound 63 (peptide)
# peptide: Ac-FCI[1Nal]QDWGEHRCTGAES-NH2
# modifications: disulfide 2-12
# SMILES: CC[C@H](C)[C@@H]1NC(=O)[C@@H](NC(=O)[C@H](Cc2ccccc2)NC(C)=O)CSSC[C@@H](C(=O)N[C@H](C(=O)NCC(=O)N[C@@H](C)C(=O)N[C@@H](CCC(=O)O)C(=O)N[C@@H](CO)C(N)=O)[C@@H](C)O)NC(=O)[C@H](CCCNC(=N)N)NC(=O)[C@H](Cc2c[nH]cn2)NC(=O)[C@H](CCC(=O)O)NC(=O)CNC(=O)[C@H](Cc2c[nH]c3ccccc23)NC(=O)[C@H](CC(=O)O)NC(=O)[C@H](CCC(N)=O)NC(=O)[C@H](Cc2cccc3ccccc23)NC1=O
# B7: Compound 43 (peptide)
# peptide: Ac-FCIWQDWGEHRCTGAE-NH2
# modifications: disulfide 2-12
# SMILES: CC[C@H](C)[C@@H]1NC(=O)[C@@H](NC(=O)[C@H](Cc2ccccc2)NC(C)=O)CSSC[C@@H](C(=O)N[C@H](C(=O)NCC(=O)N[C@@H](C)C(=O)N[C@@H](CCC(=O)O)C(N)=O)[C@@H](C)O)NC(=O)[C@H](CCCNC(=N)N)NC(=O)[C@H](Cc2c[nH]cn2)NC(=O)[C@H](CCC(=O)O)NC(=O)CNC(=O)[C@H](Cc2c[nH]c3ccccc23)NC(=O)[C@H](CC(=O)O)NC(=O)[C@H](CCC(N)=O)NC(=O)[C@H](Cc2c[nH]c3ccccc23)NC1=O
# B8: Compound 73 (peptide)
# peptide: H-[dY]FCI[Trp(1-Me)]QDW[Sar]EHRCTGAES-NH2
# modifications: disulfide 3-13
# SMILES: CC[C@H](C)[C@@H]1NC(=O)[C@@H](NC(=O)[C@H](Cc2ccccc2)NC(=O)[C@H](N)Cc2ccc(O)cc2)CSSC[C@@H](C(=O)N[C@H](C(=O)NCC(=O)N[C@@H](C)C(=O)N[C@@H](CCC(=O)O)C(=O)N[C@@H](CO)C(N)=O)[C@@H](C)O)NC(=O)[C@H](CCCNC(=N)N)NC(=O)[C@H](Cc2c[nH]cn2)NC(=O)[C@H](CCC(=O)O)NC(=O)CN(C)C(=O)[C@H](Cc2c[nH]c3ccccc23)NC(=O)[C@H](CC(=O)O)NC(=O)[C@H](CCC(N)=O)NC(=O)[C@H](Cc2cn(C)c3ccccc23)NC1=O
# B9: Compound 29 (peptide)
# peptide: Ac-EGSAICIWQDWGEHRCT-NH2
# modifications: disulfide 6-16
# SMILES: CC[C@H](C)[C@H](NC(=O)[C@H](C)NC(=O)[C@H](CO)NC(=O)CNC(=O)[C@H](CCC(=O)O)NC(C)=O)C(=O)N[C@H]1CSSC[C@@H](C(=O)N[C@H](C(N)=O)[C@@H](C)O)NC(=O)[C@H](CCCNC(=N)N)NC(=O)[C@H](Cc2c[nH]cn2)NC(=O)[C@H](CCC(=O)O)NC(=O)CNC(=O)[C@H](Cc2c[nH]c3ccccc23)NC(=O)[C@H](CC(=O)O)NC(=O)[C@H](CCC(N)=O)NC(=O)[C@H](Cc2c[nH]c3ccccc23)NC(=O)[C@H]([C@@H](C)CC)NC1=O
# B10: Compound 85 (peptide)
# peptide: Ac-EFCI[Trp(1-Me)]QDWGEHRCES-NH2
# modifications: disulfide 3-13
# SMILES: CC[C@H](C)[C@@H]1NC(=O)[C@@H](NC(=O)[C@H](Cc2ccccc2)NC(=O)[C@H](CCC(=O)O)NC(C)=O)CSSC[C@@H](C(=O)N[C@@H](CCC(=O)O)C(=O)N[C@@H](CO)C(N)=O)NC(=O)[C@H](CCCNC(=N)N)NC(=O)[C@H](Cc2c[nH]cn2)NC(=O)[C@H](CCC(=O)O)NC(=O)CNC(=O)[C@H](Cc2c[nH]c3ccccc23)NC(=O)[C@H](CC(=O)O)NC(=O)[C@H](CCC(N)=O)NC(=O)[C@H](Cc2cn(C)c3ccccc23)NC1=O
# B11: Compound 23 (peptide)
# peptide: Ac-FCIWQDWGEHRCT-NH2
# modifications: disulfide 2-12
# SMILES: CC[C@H](C)[C@@H]1NC(=O)[C@@H](NC(=O)[C@H](Cc2ccccc2)NC(C)=O)CSSC[C@@H](C(=O)N[C@H](C(N)=O)[C@@H](C)O)NC(=O)[C@H](CCCNC(=N)N)NC(=O)[C@H](Cc2c[nH]cn2)NC(=O)[C@H](CCC(=O)O)NC(=O)CNC(=O)[C@H](Cc2c[nH]c3ccccc23)NC(=O)[C@H](CC(=O)O)NC(=O)[C@H](CCC(N)=O)NC(=O)[C@H](Cc2c[nH]c3ccccc23)NC1=O
# Columns and labels:
# Human C3 [1] = target: T1, Human C3 (human, UniProt P01024 23-1663); assay: SPR, C3 immobilised
# T1 construct: In SPR the bought human C3 was immobilised on CM5 chips by amine coupling; In the haemolysis assay the C3 is that of diluted human serum; also called complement C3
# Experimental: Surface plasmon resonance (SPR) was used to characterize peptides with respect to their binding affinity (Kd) for C3. Human C3 (Complement tech cat #A1 13c) was immobilised on individual flow cells of CM5 sensor chips (GE Healthcare) using standard amine coupling to a density of approximately 3000 resonance units (RU) in a buffer consisting of 10 mM phosphate pH 7.4, 150 mM NaCl, 0.05% Tween20.
# For interaction experiments a multi-cycle experiment approach was used and performed using either a Biacore™ T200 or Biacore™ X100 instrument (GE Healthcare) at 25° C. Peptides were injected in increasing concentration series (5-8 different concentrations) for 60-120 s at a flow rate of 30 μL/min in a buffer consisting of 10 mM Tris buffer at pH 7.4, with 150 mM NaCl and 0.05% Tween20. This was followed by a dissociation period for up to 10 min. The C3 surface was regenerated between runs by a 45 s injection of 3 M MgCl₂.
# Sensorgrams were double-referenced (reference surface, blanks) prior to analysis of the kinetic profiles by globally fitting data to a 1:1 Langmuir binding model to obtain association and dissociation rates for calculation of the equilibrium dissociation constant Kd. Each peptide was tested at in at least 2 independent experiments.
# Human C3 [2] = target: T1, Human C3; assay: cell-based or functional assay
# T1 sequence (P01024 23-1663 limits assumed): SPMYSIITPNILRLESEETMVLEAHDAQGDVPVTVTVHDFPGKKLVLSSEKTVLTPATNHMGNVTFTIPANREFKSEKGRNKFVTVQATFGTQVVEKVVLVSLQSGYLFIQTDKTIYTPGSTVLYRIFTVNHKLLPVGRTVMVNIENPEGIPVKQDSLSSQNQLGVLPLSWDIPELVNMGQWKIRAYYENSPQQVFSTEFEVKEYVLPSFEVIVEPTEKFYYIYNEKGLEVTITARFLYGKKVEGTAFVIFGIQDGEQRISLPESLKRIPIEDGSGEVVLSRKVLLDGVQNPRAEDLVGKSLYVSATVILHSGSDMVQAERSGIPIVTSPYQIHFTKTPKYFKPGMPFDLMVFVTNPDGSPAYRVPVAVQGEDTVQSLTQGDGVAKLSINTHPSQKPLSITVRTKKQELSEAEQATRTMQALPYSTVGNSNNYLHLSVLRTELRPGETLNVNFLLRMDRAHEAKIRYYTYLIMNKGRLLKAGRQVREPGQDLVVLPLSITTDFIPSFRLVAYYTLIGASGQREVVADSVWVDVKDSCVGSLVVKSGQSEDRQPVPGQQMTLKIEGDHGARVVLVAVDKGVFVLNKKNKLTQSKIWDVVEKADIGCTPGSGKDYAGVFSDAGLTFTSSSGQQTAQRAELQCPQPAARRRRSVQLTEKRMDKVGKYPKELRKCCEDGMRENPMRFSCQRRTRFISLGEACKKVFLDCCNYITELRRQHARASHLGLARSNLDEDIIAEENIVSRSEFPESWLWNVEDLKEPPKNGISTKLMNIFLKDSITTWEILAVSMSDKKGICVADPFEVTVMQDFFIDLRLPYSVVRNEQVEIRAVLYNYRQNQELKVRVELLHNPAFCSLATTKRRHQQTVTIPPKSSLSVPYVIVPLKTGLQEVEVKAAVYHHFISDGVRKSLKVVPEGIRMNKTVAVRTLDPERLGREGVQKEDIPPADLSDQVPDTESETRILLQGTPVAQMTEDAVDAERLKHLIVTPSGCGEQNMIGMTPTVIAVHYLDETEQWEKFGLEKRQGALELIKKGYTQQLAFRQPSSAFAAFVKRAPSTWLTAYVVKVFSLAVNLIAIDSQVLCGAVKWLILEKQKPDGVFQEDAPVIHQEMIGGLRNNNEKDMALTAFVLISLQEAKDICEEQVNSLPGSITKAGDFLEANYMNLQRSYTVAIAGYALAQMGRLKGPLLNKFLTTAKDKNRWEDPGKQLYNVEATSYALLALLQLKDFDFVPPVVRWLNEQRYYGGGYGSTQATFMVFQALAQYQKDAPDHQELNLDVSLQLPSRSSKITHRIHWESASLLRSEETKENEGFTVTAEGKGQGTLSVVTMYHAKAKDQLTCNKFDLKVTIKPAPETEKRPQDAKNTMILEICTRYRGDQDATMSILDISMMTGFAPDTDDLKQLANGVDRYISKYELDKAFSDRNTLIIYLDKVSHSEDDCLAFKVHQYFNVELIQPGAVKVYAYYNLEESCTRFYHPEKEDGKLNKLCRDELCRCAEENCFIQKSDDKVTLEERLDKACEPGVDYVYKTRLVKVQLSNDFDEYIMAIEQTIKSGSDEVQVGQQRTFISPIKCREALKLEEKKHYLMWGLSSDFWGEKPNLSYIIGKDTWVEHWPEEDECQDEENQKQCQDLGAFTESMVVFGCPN
Binder,Kd (Human C3 [1]) [nM],"IC50[nM], inhibition of hemolysis (Human C3 [2]) [nM]"
B1,13,< 100
B2,9.7,< 100
B3,2.6,< 100
B4,3.2,< 100
B5,0.33,< 100
B6,4.3,< 100
B7,3.3,< 100
B8,0.3,< 100
B9,21,< 100
B10,1.3,< 100
B11,2.8,< 100
